Experimental data as given in article PMC10786891, “Massively parallel profiling of RNA-targeting CRISPR-Cas13d”.
Substitutions are numbered along the chain they refer to. Numbers in names are those of the source.

T1: EsCas13d, nuclease-dead (Eubacterium siraeum, UniProt B0MS50, R295A;H300A;R849A;H854A)
T1 sequence: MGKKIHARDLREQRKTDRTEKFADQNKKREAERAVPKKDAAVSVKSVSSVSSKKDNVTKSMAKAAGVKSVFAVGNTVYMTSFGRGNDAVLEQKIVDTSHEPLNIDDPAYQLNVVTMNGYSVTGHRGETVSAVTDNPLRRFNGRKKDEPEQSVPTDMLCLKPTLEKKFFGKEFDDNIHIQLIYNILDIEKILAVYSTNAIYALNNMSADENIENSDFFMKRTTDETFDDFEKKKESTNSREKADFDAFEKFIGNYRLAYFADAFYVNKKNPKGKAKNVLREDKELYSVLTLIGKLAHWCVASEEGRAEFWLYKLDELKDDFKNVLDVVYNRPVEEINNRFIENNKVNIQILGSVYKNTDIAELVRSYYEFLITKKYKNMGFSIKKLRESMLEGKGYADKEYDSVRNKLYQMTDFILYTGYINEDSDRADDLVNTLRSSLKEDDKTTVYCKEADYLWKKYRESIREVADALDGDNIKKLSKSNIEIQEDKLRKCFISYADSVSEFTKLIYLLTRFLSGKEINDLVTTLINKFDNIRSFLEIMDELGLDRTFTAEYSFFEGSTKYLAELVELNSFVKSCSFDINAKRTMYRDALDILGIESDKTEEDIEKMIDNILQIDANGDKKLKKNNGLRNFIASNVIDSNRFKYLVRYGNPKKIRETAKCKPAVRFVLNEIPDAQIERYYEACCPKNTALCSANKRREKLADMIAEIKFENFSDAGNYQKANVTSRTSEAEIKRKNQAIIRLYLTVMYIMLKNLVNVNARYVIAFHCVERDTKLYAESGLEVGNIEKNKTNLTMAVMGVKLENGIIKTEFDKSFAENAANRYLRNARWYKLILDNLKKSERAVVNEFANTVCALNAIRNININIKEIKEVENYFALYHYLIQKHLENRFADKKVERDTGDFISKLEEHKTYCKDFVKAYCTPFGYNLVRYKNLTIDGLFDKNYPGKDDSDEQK

B1: target 1 A1G,C7U (mixed)
RNA 1: CACCCGUGCAAAAAUGCAGGGGUCUAAAACUGAGCGGAUAACCUCUCUAUGG
RNA 2: GGGAAUGGAUCCACAUCUACGAAUUCGUACCAUAGAGAGGUUAUUCGCUCGCCGAGAUCGGAAGAGCACACGU
B2: target 1 complement block 2-13 (mixed)
RNA 1: B1 RNA 1
RNA 2: GGGAAUGGAUCCACAUCUACGAAUUCGUACCAUAGAGACCAAUAGGCGAGACCGAGAUCGGAAGAGCACACGU
B3: target 1 insG 3' of 4 (mixed)
RNA 1: B1 RNA 1
RNA 2: GGGAAUGGAUCCACAUCUACGAAUUCGUACCAUAGAGAGGUUAUCCGCGUCACCGAGAUCGGAAGAGCACACGU
B4: target 1 insG 3' of 2,insG 3' of 1 (mixed)
RNA 1: B1 RNA 1
RNA 2: GGGAAUGGAUCCACAUCUACGAAUUCGUACCAUAGAGAGGUUAUCCGCUCGAGCCGAGAUCGGAAGAGCACACGU
B5: target 1 insA 3' of 12,insC 3' of 5 (mixed)
RNA 1: B1 RNA 1
RNA 2: GGGAAUGGAUCCACAUCUACGAAUUCGUACCAUAGAGAGGAUUAUCCGCCUCACCGAGAUCGGAAGAGCACACGU
B6: target 1 insU 3' of 20,insG 3' of 19 (mixed)
RNA 1: B1 RNA 1
RNA 2: B5 RNA 2 with A34U, G40A, A41G, U42G, A44U, U45A, C46U, G48C, C49G
B7: target 1 insA 3' of 13,insG 3' of 6 (mixed)
RNA 1: B1 RNA 1
RNA 2: B5 RNA 2 with G40A, A41G, C49G
B8: target 1 insA 3' of 7,insU 3' of 6 (mixed)
RNA 1: B1 RNA 1
RNA 2: B5 RNA 2 with A41U, U43A, A44U, U45C, C46A, G48U, C49G
B9: target 1 insA 3' of 10,insG 3' of 10 (mixed)
RNA 1: B1 RNA 1
RNA 2: B5 RNA 2 with A41U, U43A, A44G, U45A, C46U, G48C, C49G
B10: target 1 C7U,A14G (mixed)
RNA 1: B1 RNA 1
RNA 2: B1 RNA 2 with A38G, G51A
B11: target 1 insG 3' of 3,insU 3' of 1 (mixed)
RNA 1: B1 RNA 1
RNA 2: B4 RNA 2 with C50G, G51C, G53U
B12: target 1 C6G,G12U (mixed)
RNA 1: B1 RNA 1
RNA 2: B1 RNA 2 with G40U, U45C, C46G, G51A
B13: target 1 G5C,A9C (mixed)
RNA 1: B1 RNA 1
RNA 2: B1 RNA 2 with A43C, U45C, G47C, G51A
B14: target 1 insG 3' of 20,insU 3' of 20 (mixed)
RNA 1: B1 RNA 1
RNA 2: GGGAAUGGAUCCACAUCUACGAAUUCGUACCAGUUAGAGAGGUUAUCCGCUCACCGAGAUCGGAAGAGCACACGU
B15: target 1 U10A,A18C (mixed)
RNA 1: B1 RNA 1
RNA 2: B1 RNA 2 with A34C, U42A, U45C, G51A

Biological target: T1, EsCas13d, nuclease-dead
Test: crRNA (strand 1, pre-loaded); Mg2+; 40 mM Tris-HCl pH 7.5, 150 mM NaCl, 6 mM MgCl2, 1 mM DTT, 0.1% Tween-20, 0.2 mg/ml BSA; 25 C; 10 min per concentration, then washed
Settings: tags: His6-TwinStrep-SUMO cleaved; N-terminal SNAP kept (SNAP-Surface 488); label: 3' end held by stalled T7 RNA polymerase

Binder	Kd [nM]
B1	9.2 ± 0.7
B2	74 ± 11
B3	6.65 ± 0.25
B4	7 ± 0.6
B5	23.6 ± 2.1
B6	30.4 ± 1.8
B7	3.93 ± 0.27
B8	7.6 ± 0.5
B9	12.3 ± 0.6
B10	16.5 ± 1.6
B11	9.04 ± 0.35
B12	13.7 ± 1.2
B13	16.7 ± 0.8
B14	28.4 ± 1.6
B15	100 ± 17
